Article PMC5816668, “Insights into the inhibitory mechanisms of NADH on the αγ heterodimer of human NAD-dependent isocitrate dehydrogenase” (Scientific Reports, 2018)

Substrate: NC(=O)c1ccc[n+]([C@@H]2O[C@H](COP(=O)(O)OP(=O)(O)OC[C@H]3O[C@@H](n4cnc5c(N)ncnc54)[C@H](O)[C@@H]3O)[C@@H](O)[C@H]2O)c1
Assay: purified protein
Assay type: biochemical, Homo sapiens
Details: 33 mM Tris-acetate pH 7.4, 2 mM Mn2+, 20 mM DL-isocitrate, 25 °C, no NADH, Michaelis-Menten fit, varied: cofactor

B1: αγ heterodimer of human NAD-IDH (Homo sapiens) (protein)
chain 1: TGGVQTVTLIPGDGIGPEISAAVMKIFDAAKAPIQWEERNVTAIQGPGGKWMIPSEAKESMDKNKMGLKGPLKTPIAAGHPSMNLLLRKTFDLYANVRPCVSIEGYKTPYTDVNIVTIRENTEGEYSGIEHVIVDGVVQSIKLITEGASKRIAEFAFEYARNNHRSNVTAVHKANIMRMSDGLFLQKCREVAESCKDIKFNEMYLDTVCLNMVQDPSQFDVLVMPNLYGDILSDLCAGLIGGLGVTPSGNIGANGVAIFESVHGTAPDIAGKDMANPTALLLSAVMMLRHMGLFDHAARIEAACFATIKDGKSLTKDLGGNAKCSDFTEEICRRVKDLD
chain 2: FSEQTIPPSAKYGGRHTVTMIPGDGIGPELMLHVKSVFRHACVPVDFEEVHVSSNADEEDIRNAIMAIRRNRVALKGNIETNHNLPPSHKSRNNILRTSLDLYANVIHCKSLPGVVTRHKDIDILIVRENTEGEYSSLEHESVAGVVESLKIITKAKSLRIAEYAFKLAQESGRKKVTAVHKANIMKLGDGLFLQCCREVAARYPQITFENMIVDNTTMQLVSRPQQFDVMVMPNLYGNIVNNVCAGLVGGPGLVAGANYGHVYAVFETATRNTGKSIANKNIANPTATLLASCMMLDHLKLHSYATSIRKAVLASMDNENMHTPDIGGQGTTSEAIQDVIRHIRVINGRAVEA
notes: E. coli BL21(DE3) Codon-Plus co-expression from pQlinkN-α-γ-tev-His6; C-terminal His6 of gamma cut with TEV protease; alpha 37 kDa, gamma 39 kDa; heterodimer
Work on B1 yielded a K0.5 of 0.267 ± 0.002 mM.
